Measurements published in patent publication US20120321668A1.

Tests used:
[1] = target: TLR2 TMD peptide labelled with Rho (TLR2-Rho); test: FRET, gp41 TMD-NBD constant at 0.4 µM and TLR2-Rho added at 0.025-0.8 µM, 100 µM LUVs
[2] = target: CD3 molecules of the CD3/TCR complex on mouse T cells (mouse) (UniProt A2KF29); test: confocal fluorescence microscopy, NBD-peptide and labelled anti-CD3 antibody on mouse T cells

“gp41 TMD conjugated to NBD (gp41 transmembrane domain peptide, NBD-labelled)” was tested, and the percent of energy transfer (FRET) [1] was > 60% and the co-localization percentage [2] was 58.8%.
